# Biological target: the molecule itself
# Experiment: SEC
protein,measurement,value
"pro-PanD (uncleaved L-aspartate-alpha-decarboxylase) of Salmonella enterica (enzyme, S. enterica serovar Typhimurium LT2, UniProt P65662 1-126, looked up) MIRTMLQGKLHRVKVTQADLHYEGSCAIDQDFLDASGILENEAIDIWNVTNGKRFSTYAIAAERGSRIISVNGAAAHCAEVGDIVIIASFVTMSDEEARTWRPKVAYFEGDNEMKRTAKAIPVQVA",stoichiometry N,4

# From publication PMC3345047 (Molecular Microbiology, 2012)
